Where a chain is given by its changes, count along the chain named.
B1: 3G8 항체 (항-BAG2 단일클론성 항체) (antibody, V domains shown)
VH: QIQLVQSGPELKKPGETVKISCKASGYSFTKYGMNWVKQAPGKDIKWMGWINTNTGEATYGEEVKGRFAFSLETSASTAYLQINNLKNEDTATYFCARLGLRYLDYWGQGTTLTVSS
VL: DIVMTQSPASLVVSLGQRATISCRASKSVSTSDYSYMHWYQQKPGQPPKVLIYLASNLESGVPARFSGSGSGTDFTLNIHPVEEEDAATYYCQHNRELPPTFGAGTKLELK
notes: Mouse hybridoma monoclonal antibody
B2: 4C2 항체 (항-BAG2 단일클론성 항체) (antibody, V domains shown)
VH: QVQLQQPGAELVRPGASVTLSCKASGYTFTDYEMHWVKQTPVHGLEWIGIIDPETGATAYNQKFKGKATLTADKSSSTAYMELRSLTSEDSAVYYCTRGKFYYSGRDYAMDYWGQGTSVTVSS
VL: DVLMTQTPLSLPVSLGDQASISCRSSQSIVHSNGNTYLEWYLQKPGQSPKLLFYKVSNRFSGVPDRFSGSGSGTDFTLKISRVEAEDLGVYFCFQGSQVPPTFGGGTKLEIK
notes: as for B1
B3: 8C4 항체 (항-BAG2 단일클론성 항체) (antibody, V domains shown)
VH: B2 VH with G56A, A57G
VL: B2 VL
notes: as for B1
B4: 3F12 항체 (항-BAG2 단일클론성 항체) (antibody, V domains shown)
VH: QVQLQESGPDLVKPSQSLSLTCTVTGYSITSGYSWHWIRQFPGNKLEWMGYIYYRGSTNYNPSLKSRISITRDTSKNQFFLLLKSVTTEDTATYYCAREAYWGQGTLVTVSA
VL: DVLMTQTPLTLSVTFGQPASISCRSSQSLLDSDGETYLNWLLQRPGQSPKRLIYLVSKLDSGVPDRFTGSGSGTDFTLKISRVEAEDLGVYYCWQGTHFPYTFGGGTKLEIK
notes: as for B1
B5: 2A11 항체 (항-BAG2 단일클론성 항체) (antibody, V domains shown)
VH: B2 VH with A57G
VL: B2 VL with F53I
notes: as for B1

molecular target: T1, 인간 BAG2 단백질 (human BAG2 protein) (human, UniProt O95816 2-211); assay: immunoblot of MDA-MB-231 cell lysate, antibody from hybridoma culture at 1/2000
T1 construct: also called BAG2 폴리펩티드
T1 sequence (O95816 2-211 limits assumed): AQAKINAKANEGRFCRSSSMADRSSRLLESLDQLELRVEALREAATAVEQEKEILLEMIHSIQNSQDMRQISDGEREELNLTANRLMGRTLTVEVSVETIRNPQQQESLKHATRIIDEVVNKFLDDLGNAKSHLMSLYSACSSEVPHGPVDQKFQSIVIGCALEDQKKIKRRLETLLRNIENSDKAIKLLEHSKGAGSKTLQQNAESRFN

binding result	Binder
binds	B1
binds	B2
binds	B3

molecular target: T1, 인간 BAG2 단백질 (human BAG2 protein); assay: immunoblot selection of hybridoma clones

binding result	Binder
binds	B4
binds	B5

molecular target: T2, GST-Bag Full (GST-융합 전장 BAG2 폴리펩티드) (human, UniProt O95816 1-211); assay: immunoblot of lysate of HEK293T cells transfected with GST-Bag Full vector, signal at about 50 kDa
T2 construct: Expressed in HEK293T cells, detected at about 50 kDa in lysate by immunoblot; also called GST-Bag Full 벡터 발현 산물; not shown: GST tag, about 26 kDa, from pcDNA3.1+/GST vector (NovoPro Bioscience)
T2 sequence (O95816 whole entry): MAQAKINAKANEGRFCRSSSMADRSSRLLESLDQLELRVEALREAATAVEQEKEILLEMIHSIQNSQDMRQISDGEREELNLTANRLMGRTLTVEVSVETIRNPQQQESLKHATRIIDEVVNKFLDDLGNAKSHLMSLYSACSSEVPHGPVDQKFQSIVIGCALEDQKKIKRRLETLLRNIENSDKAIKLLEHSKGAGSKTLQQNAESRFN

binding result	Binder
binds	B4
binds	B1
binds	B5
binds	B2
binds	B3

— KR20200098338A (dated 2020)
